Molecular target: T1, recombinant mouse TNF-α (mouse), P06804
T1 chain: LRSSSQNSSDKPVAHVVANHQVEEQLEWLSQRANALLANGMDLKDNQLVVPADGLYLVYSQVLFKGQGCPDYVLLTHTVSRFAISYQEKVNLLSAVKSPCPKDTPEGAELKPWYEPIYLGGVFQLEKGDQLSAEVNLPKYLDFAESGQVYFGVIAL
Assay: cross-linking; 100 ng recombinant TNF-α incubated 1 h at 37 °C with different concentrations of DMSO (or without: cross-linked control), cross-linked with 4.8 mM BS3 for 30 min at room temperature, stopped with 1/10 volume 1 M Tris-HCl pH 7.5; SDS-PAGE and Western blot with anti-TNF-α antibody
Details: remark: other sources report otherwise

stoichiometry N: 3
B1: recombinant mouse TNF-α, P06804 80-235 (ligand)
chain: LRSSSQNSSDKPVAHVVANHQVEEQLEWLSQRANALLANGMDLKDNQLVVPADGLYLVYSQVLFKGQGCPDYVLLTHTVSRFAISYQEKVNLLSAVKSPCPKDTPEGAELKPWYEPIYLGGVFQLEKGDQLSAEVNLPKYLDFAESGQVYFGVIAL
